The test deals with E-cadherin (human (endogenous in MCF7, HaCaT and FFPE human tissue)). Put plainly: MolBoolean (proximity assay with antibody-DNA conjugates); FFPE human tissue sections after deparaffinisation and antigen retrieval; secondary proximity probes; percentage of RCPs in each category per frame.
Chain of E-cadherin (human (endogenous in MCF7, HaCaT and FFPE human tissue)) (P12830 23-882): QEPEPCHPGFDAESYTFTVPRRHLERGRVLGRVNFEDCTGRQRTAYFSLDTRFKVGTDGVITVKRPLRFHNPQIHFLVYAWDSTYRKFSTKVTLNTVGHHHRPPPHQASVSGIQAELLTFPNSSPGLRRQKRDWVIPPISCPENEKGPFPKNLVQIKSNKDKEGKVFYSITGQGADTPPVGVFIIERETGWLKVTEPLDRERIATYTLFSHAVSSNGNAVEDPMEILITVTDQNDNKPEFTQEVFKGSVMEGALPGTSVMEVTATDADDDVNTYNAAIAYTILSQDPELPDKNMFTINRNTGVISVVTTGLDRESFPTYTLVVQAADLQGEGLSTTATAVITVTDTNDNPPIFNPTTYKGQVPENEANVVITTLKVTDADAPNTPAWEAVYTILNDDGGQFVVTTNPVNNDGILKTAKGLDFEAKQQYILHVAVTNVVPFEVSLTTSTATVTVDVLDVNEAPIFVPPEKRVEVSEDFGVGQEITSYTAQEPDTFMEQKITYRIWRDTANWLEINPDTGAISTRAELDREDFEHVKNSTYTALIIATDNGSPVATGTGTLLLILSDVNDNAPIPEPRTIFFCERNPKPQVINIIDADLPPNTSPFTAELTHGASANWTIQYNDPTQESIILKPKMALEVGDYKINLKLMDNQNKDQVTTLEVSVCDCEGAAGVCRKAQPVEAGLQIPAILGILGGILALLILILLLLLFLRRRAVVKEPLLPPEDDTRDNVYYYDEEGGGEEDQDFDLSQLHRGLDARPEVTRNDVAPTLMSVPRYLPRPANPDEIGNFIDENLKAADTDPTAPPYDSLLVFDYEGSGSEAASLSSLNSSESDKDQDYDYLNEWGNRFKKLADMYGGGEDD

Take “β-catenin (from UniProt P35222 1-781) (natural protein)”: the percent of the detected signal per image from complexes stood at 50%.

Values taken from paper PMC9375095.
